Results taken from article PMC9888277.

B1: wild-type KHNYN-GFP [human] / ZAP-L (zinc finger antiviral protein, long isoform) [modified: C-terminal S-farnesylation; C-terminal S-farnesylation] [human (endogenous in HeLa)] (parent)
chain 1: MPTWGARPASPDRFAVSAEAENKVREQQPHVERIFSVGVSVLPKDCPDNPHIWLQLEGPKENASRAKEYLKGLCSPELQDEIHYPPKLHCIFLGAQGFFLDCLAWSTSAHLVPRAPGSLMISGLTEAFVMAQSRVEELAERLSWDFTPGPSSGASQCTGVLRDFSALLQSPGDAHREALLQLPLAVQEELLSLVQEASSGQGPGALASWEGRSSALLGAQCQGVRAPPSDGRESLDTGSMGPGDCRGARGDTYAVEKEGGKQGGPREMDWGWKELPGEEAWEREVALRPQSVGGGARESAPLKGKALGKEEIALGGGGFCVHREPPGAHGSCHRAAQSRGASLLQRLHNGNASPPRVPSPPPAPEPPWHCGDRGDCGDRGDVGDRGDKQQGMARGRGPQWKRGARGGNLVTGTQRFKEALQDPFTLCLANVPGQPDLRHIVIDGSNVAMVHGLQHYFSSRGIAIAVQYFWDRGHRDITVFVPQWRFSKDAKVRESHFLQKLYSLSLLSLTPSRVMDGKRISSYDDRFMVKLAEETDGIIVSNDQFRDLAEESEKWMAIIRERLLPFTFVGNLFMVPDDPLGRNGPTLDEFLKKPARTQGSSKAQHPSRGFAEHGKQQQGREEEKGSGGIRKTRETERLRRQLLEVFWGQDHKVDFILQREPYCRDINQLSEALLSLNF
chain 2: MADPEVCCFITKILCAHGGRMALDALLQEIALSEPQLCEVLQVAGPDRFVVLETGGEAGITRSVVATTRARVCRRKYCQRPCDNLHLCKLNLLGRCNYSQSERNLCKYSHEVLSEENFKVLKNHELSGLNKEELAVLLLQSDPFFMPEICKSYKGEGRQQICNQQPPCSRLHICDHFTRGNCRFPNCLRSHNLMDRKVLAIMREHGLNPDVVQNIQDICNSKHMQKNPPGPRAPSSHRRNMAYRARSKSRDRFFQGSQEFLASASASAERSCTPSPDQISHRASLEDAPVDDLTRKFTYLGSQDRARPPSGSSKATDLGGTSQAGTSQRFLENGSQEDLLHGNPGSTYLASNSTSAPNWKSLTSWTNDQGARRKTVFSPTLPAARSSLGSLQTPEAVTTRKGTGLLSSDYRIINGKSGTQDIQPGPLFNNNADGVATDITSTRSLNYKSTSSGHREISSPRIQDAGPASRDVQATGRIADDADPRVALVNDSLSDVTSTTSSRVDDHDSEEICLDHLCKGCPLNGSCSKVHFHLPYRWQMLIGKTWTDFEHMETIEKGYCNPGIHLCSVGSYTINFRVMSCDSFPIRRLSTPSSVTKPANSVFTTKWIWYWKNESGTWIQYGEEKDKRKNSNVDSSYLESLYQSCPRGVVPFQAGSRNYELSFQGMIQTNIASKTQKDVIRRPTFVPQWYVQQMKRGPDHQPAKTSSVSLTATFRPQEDFCFLSSKKYKLSEIHHLHPEYVRVSEHFKASMKNFKIEKIKKIENSELLDKFTWKKSQMKEEGKLLFYATSRAYVESICSNNFDSFLHETHENKYGKGIYFAKDAIYSHKNCPYDAKNVVMFVAQVLVGKFTEGNITYTSPPPQFDSCVDTRSNPSVFVIFQKDQVYPQYVIEYTEDKACVIS

Variants of: B1
Experiment: co-immunoprecipitation (GFP IP, immunoblot for endogenous ZAP, quantified)
Conditions: with ZAP-L (zinc finger antiviral protein, long isoform) [modified: C-terminal S-farnesylation, HeLa cell lysates, N = 3, parent: 1, read off a plot

Variant | ratio to parent
chain 1 L676Q F678E | 0.38
